Laboratory results reported in the DeepSol protein solubility set.

Assay: soluble on expression in E. coli; label from the status in PepcDB or PDB records
In the case of “KNSFNIKLKEDSEMLEEVVVTGYGGKQLRTKVTNSIAKVKDEALKVGLFSNPAQALSGAVAGLKVTQASGSPGAAPKVTLRGGTNFDGSGDPLVIVDGQLRDGMQDINPEDIESMEVLKDAGATAIYGARASNGVILITTKTGKEGR”, the “soluble on expression in E. coli” value is reported as “not soluble”.
With “KPAAHLIGDPSKQNSLLWRANTDRAFLQDGFSLSNNSLLVPTSGIYFVYSQVVFSGKAYSPKATSSPLYLAHEVQLFSSQYPFHVPLLSSQKMVYPGLQEPWLHSMYHGAAFQLTQGDQLSTHTDGIPHLVLSPSTVFFGAFAL” the “soluble on expression in E. coli” value was “soluble”.
In the case of “KPKFFYIKSELNGKVLDIEGQNPAPGSKIITWDQKKGPTAVNQLWYTDQQGVIRSKLNDFAIDASHEQIETQPFDPNNPKRAWIVSGNTIAQLSDRDIVLDIIKSDKEAGAHICAWKQHGGPNQKFIIESE”, the “soluble on expression in E. coli” value is reported as “soluble”.
With “KQGQTALGVEFGSTRIKSVLIDANNFEVLASGSFEWDNQLVNGIWTYSLDDVWKGLQASYTDLKAEVKDKYDFKLSKIGQIGISAMMHGYLVFDQADKQLAEFRTWRNAITEQAAGELSKLFNFNIPQRWCIAHLYQAILNQEKSVSQIDFMTTLAGYVHWRLTGKKVTGIGDASGIFPIDSNSKDYDQKKLDQFSDLDGVEKQPWDIKRILPKVLLAGQNAGQLTKEGSLLIDPSGDLQDGSVFCPPEGDA” the “soluble on expression in E. coli” value was “not soluble”.
For “KRFTADVEQQAEKILSQMTLDEKLSYIGGINWMYTRPLERFGIPRLKMSDGPQGLGTHGPSTAYPCALMLAATWNEQLATEYGSALGKDCRARGVHVLLGPAVNIYRAPMCGRNFEYMGEDPYLTSRMATGYIKGVQGQGVMATIKHFIANNSDYDRDHISSDIDERTLNEIYFPSFRAAVQEAEVGAVMSSYNLLNGIYTTEHPWLLKDVLRQQWGFKGILMSDWGSTHHCIPAVKGGLDLEMPAGSKMQPEELKYYLRTGDITIETIDEKVRHILQTLLAFGFRETQQPDTHIPLKNPQCAQTA”, the “soluble on expression in E. coli” value was “not soluble”.
In the case of “KRKFACVECRQQKSKCDAHERAPEPCTKCAKKNVPCILKRDFRRTYKRARNEAIEKRFKELTRTLTNLTSDE”, the “soluble on expression in E. coli” value is reported as “soluble”.
In the case of “KTKNEPKVILELAKESDLPEFQKKLQEAFAIAVIETFGDCEDGPIPSDNDVQESFNAPGAVVYHILQDGKNVGGAVVRINSQTNHNSLDLFYVSPEYHSQGIGLSAWKAIEAQYPDTVLWETVTPYFEKRNINFYVNKCGFHIVEFYNEHHSNPHMHRNGR”, the “soluble on expression in E. coli” value is reported as “soluble”.
For “KVKELTILYRGSTAPTLASGLTPFHKDSLDVWTDWGVNDIPTAIQITNGGGSTVTPQLKTSAETLKQTMKLYPNAQIYVYGHSLGSMNAQYAIADLDKKDIKRISGGFFYQGPNIYSNLTPKQQDTVKAINALDRLFNFIDRKDYVAIGYGTGDPTIGHLIEVESKKAGLV”, the “soluble on expression in E. coli” value was “not soluble”.
For “LADTSPMDKKGRKAEDALVVNVRANLYWWEFEYPDYGIITSQELIVPTDQRVYFNLKASDVKHSFWIPSVGGKLDTNTDNENKFFLTFDSKRSKEAGDMFFGKCAELCGPSHALMDFKVKTMSAKEFQGWTKEMKNYKSTAESDLAKQGEELFKEKNCLSCHAVEPNDKRAEAARTAPNLATFGERTKVAGVKEANKENVKAWLKDPDSIKPGNKMTGTYPKLSDSETNALYEYLKGLKAE”, the “soluble on expression in E. coli” value was “not soluble”.
In the case of “LANKQIESRIIQFDVEFPSDEVAKQLSIEKTVPVYHIIRLRKVEGEPYVIEETYMPSNVISELNEDVLHGSVYRHITETLKLTIAGSHRKIRADKSSALDREYLECAPDDPVLEVEQVAFLNTGEPFEYSFARHRYDKFVFSSVHIRK”, the “soluble on expression in E. coli” value is reported as “not soluble”.
With “LDPPSGELSLPEDIPGEAKVYFDDEGVPYIHASSDEAAFYAAGWVHASLRLFQMDVFRRVGLGELSGLVGEAGLEADRRAAILGLRSVVDAEWRHIQNNPEFGEIVRIVEAYTAGVNGYISYALKTGRLPVEYRVLGVKPSPWLPQDTLAMAKVLALMLSYSEDDLILDRLVRKWGPEVIADFDIVGRSLNMPHASCDMAVDWGDVTGLEGPYNPLLSVEERREPLHESEPLDLGYNPDPEIIAAVVDRVLYMLSWNAASNNWVVSGSLTVSGNPLLANDPHLSLTAPGIWLPIVISSPSYSLAGVTIPGVPLVVIGRNSHVAWGFTNVGSDFTDFYRYQWVDENRYFYKGRIFGVEKSSIEAYVWDPLARSYRVQEISVARTIHGPVIEWQGEKFAVSYTSARPTFEMIFLWLLNKASSVRDALSAQRYFYGPPQNMVVADSAGNIAYSPVGAYPERATLPTIETGYGPIVNTGFLPFDGSAGEGEWRGFKPYSSLPVLFNPPQGFVATANSKPFEDGCWDGLGWDYADRFRTERIYTLLQERSAEEPLDAGDMRDIQLDVEDLGLKTLVSLMVRVASGDGGHVLERYMDMLAEWAENPQM” the “soluble on expression in E. coli” value was “not soluble”.
In the case of “LGFLPKEKKDKIKRFIKYEDALMSLTAEILIRAVVCSKLGIKNESVKFNRTTYGKPYLEGYDDFHFNLSHSGSWVVCAVSSKPVGIDIEKIREVDLDIAKRFFSKEEASDLFAKEDNEKTEYFFELWTLKESYIKADGRGLSLPLNSFFFRIENDNVIFVSESEKKKFFFKRYDIDKGYKLAVCSMESHFPEDVEIKSFEEVCKFLCER”, the “soluble on expression in E. coli” value is reported as “not soluble”.
With “LGIDLLSYYIEAGSCMIYYNEKPYIDEFQQYVSDNDISTTDVEQYDEWMSEHDVAFYSVQEMGKVIYNKSNVDKLISPAKNMYDYRFTGSYELPVQFSDIEAEVFIYTGFTEKYY” the “soluble on expression in E. coli” value was “not soluble”.
For “LITPQYKSEAKLYILSKETTLTSLADLQIGSQLTQDYKVLVSSRPVMEGVINHLKLDYSYKELAGKLTVENPQNTRILSLTVRDENPYMAKQIVDDIANTASDYIGEIMEMVPPKMIEDGVVASEPYSPSIKRN”, the “soluble on expression in E. coli” value was “not soluble”.
For “LKPDPWADIETRFPVGSRHHARVRNFTNFGVFVEIEEGVDGLIHISDLSWTKKIKHPSEFTEVGADIEVQVIEIDKENRRLSLGHKQLEENPWDVFETVFTVGSIHEGTVIEVMDKGAVVSLPYGVEGFATPKHMVKEDGSQAVLEEKLPFKVIEFNKDAKRIIVSHSRVFEDEQKMAQREANAERKAEAKAAQKEAAAEAANPAQAVEKATLGDLGELAALKEKLSEN”, the “soluble on expression in E. coli” value was “not soluble”.
With “LKRLFFTVSLAVVLSACQALPLNQSQAIVHDEYVSSGDLLPIEAITTIDGEELDLQQLGKRKLVILFATWCHDSNRLLKALNSSPLLEMEGIEIVAIAREEDLETVTAWRDKRGIKVALAVDNDRSIYRRFASGGIPRLITIGENNKIIKMNLAEGEQQLAKIV” the “soluble on expression in E. coli” value was “not soluble”.
With “LLGDEAIALGAIHAGISGVYAYPGTPSTEITEFIQNNRLAKERKLHSTWCTNEKTAMEAALGMSYAGKRALVCMKHVGMNVAADAFVNSAITGVNGGLVVLAADDPSMHSSQNEQDSRFYGKFAMIPMLEPSSQQEAYDMMDYAYTLSEKLKLPVLMRVVTRLAHSRAGVEVADIREENQLNPDHERAHWVLLPGNARKQYLDLVKKQEKLEEASSKSPYNYLEGLNPEYDYEFGVIACGIGYNYVKEADTDSCHIPVLKVSQYPLPAEEIRTMADRCGYVLVVEDGQPFVEEQVKAILSSDYEVKGRLTETLPRTGELTPDNVGEAIGWGIKRPFGKSQVVMPRPPALCQGCGHRDVYDALNKVAAEYPDARIFGDIGCYTLGALPPFRAIDSCVDMGASITMAKGASDAGVFPAIAVIGDSTFTHSGMTGLLDAVNDRANITVVISDNLTTAMTGGQDSAGTNKFEAICLGLGVEPEHVRVVVPLPKNMEEITRTIREEIEY” the “soluble on expression in E. coli” value was “not soluble”.
With “LLIGFWDCVTCHGSPVDICTAKPRDIPMNPMCIYRSPEKKATEDEGSEQKIPEATNRRVWELSKANSRFATTFYQHLADSKNDNDNIFLSPLSISTAFAMTKLGACNDTLQQLMEVFKFDTISEKTSDQIHFFFAKLNCRLYRKANKASKLVSANRLFGDKSLTFNETYQDISELVYGAKLQPLDFKENAEQSRAAINKWVSNKTEGRITDVIPSEAINELTVLVLVNTIYFKGLWKSKFSPENTRKELFYKADGESCSASMMYQEGKFRYRRVAEGTQVLELPFKGDDITMVLILPKPEKSLAKVEKELTPEVLQEWLDELEEMMLVVHMPRFRIEDGFSLKEQLQDMGLVDLFSPAASALPGIVAEGRDDLYVSDAFHKAFLEVNEEGSEAAASTAVVIAGRSLNPNRVTFKANRPFLVFIREVPLNTIIFMGRVANPCVK” the “soluble on expression in E. coli” value was “soluble”.
For “LNHETITKRTLLSSLMETNSLNYPNQVKLSERLAELYGASFGIGVSKKGNQHWFNISMNIVNDHYLQDSQVLAEAVDFLKEIIFAPNIQAGQFEAETFQREKENLKAYLESIVED”, the “soluble on expression in E. coli” value was “not soluble”.
